First the molecules themselves.
B1: PSigI1 -35 region (dsDNA)
DNA 1: ATCGATAATATACACAAAAA
DNA 2: TTTTTGTGTATATTATCGAT
B2: RsgI1N, N-terminal cytoplasmic inhibitory domain of anti-σI factor RsgI1, wild type (domain or fragment, C. thermocellum ATCC 27405)
chain: MNRLGIIYEIQGMKAVVLTSEGEFLIIRRRKDMKVGQQVSFENEDIYNVRGK
B3: RsgI1N Y8L-E9K (domain or fragment, C. thermocellum ATCC 27405)
chain: MNRLGIILKIQGMKAVVLTSEGEFLIIRRRKDMKVGQQVSFENEDIYNVRGK
B4: RsgI1N E23K (domain or fragment, C. thermocellum ATCC 27405)
chain: MNRLGIIYEIQGMKAVVLTSEGKFLIIRRRKDMKVGQQVSFENEDIYNVRGK
B5: RsgI1N L18F (domain or fragment, C. thermocellum ATCC 27405)
chain: MNRLGIIYEIQGMKAVVFTSEGEFLIIRRRKDMKVGQQVSFENEDIYNVRGK
B6: RsgI1N E21K (domain or fragment, C. thermocellum ATCC 27405)
chain: MNRLGIIYEIQGMKAVVLTSKGEFLIIRRRKDMKVGQQVSFENEDIYNVRGK
B7: RsgI1N E9K (domain or fragment, C. thermocellum ATCC 27405)
chain: MNRLGIIYKIQGMKAVVLTSEGEFLIIRRRKDMKVGQQVSFENEDIYNVRGK
B8: RsgI1N V16K (domain or fragment, C. thermocellum ATCC 27405)
chain: MNRLGIIYEIQGMKAKVLTSEGEFLIIRRRKDMKVGQQVSFENEDIYNVRGK
B9: RsgI1N E9K-E23K (domain or fragment, C. thermocellum ATCC 27405)
chain: MNRLGIIYKIQGMKAVVLTSEGKFLIIRRRKDMKVGQQVSFENEDIYNVRGK
B10: RsgI1N Y8L-E9K-V35R (domain or fragment, C. thermocellum ATCC 27405)
chain: MNRLGIILKIQGMKAVVLTSEGEFLIIRRRKDMKRGQQVSFENEDIYNVRGK
B11: RsgI1N F24I (domain or fragment, C. thermocellum ATCC 27405)
chain: MNRLGIIYEIQGMKAVVLTSEGEILIIRRRKDMKVGQQVSFENEDIYNVRGK
B12: RsgI1N Y8L-V35R (domain or fragment, C. thermocellum ATCC 27405)
chain: MNRLGIILEIQGMKAVVLTSEGEFLIIRRRKDMKRGQQVSFENEDIYNVRGK
B13: RsgI1N L18I (domain or fragment, C. thermocellum ATCC 27405)
chain: MNRLGIIYEIQGMKAVVITSEGEFLIIRRRKDMKVGQQVSFENEDIYNVRGK
B14: RsgI1N V35I (domain or fragment, C. thermocellum ATCC 27405)
chain: MNRLGIIYEIQGMKAVVLTSEGEFLIIRRRKDMKIGQQVSFENEDIYNVRGK
B15: RsgI1N Y8L (domain or fragment, C. thermocellum ATCC 27405)
chain: MNRLGIILEIQGMKAVVLTSEGEFLIIRRRKDMKVGQQVSFENEDIYNVRGK
B16: RsgI1N E9G (domain or fragment, C. thermocellum ATCC 27405)
chain: MNRLGIIYGIQGMKAVVLTSEGEFLIIRRRKDMKVGQQVSFENEDIYNVRGK
B17: RsgI1N Y8I (domain or fragment, C. thermocellum ATCC 27405)
chain: MNRLGIIIEIQGMKAVVLTSEGEFLIIRRRKDMKVGQQVSFENEDIYNVRGK
B18: RsgI1N V35K (domain or fragment, C. thermocellum ATCC 27405)
chain: MNRLGIIYEIQGMKAVVLTSEGEFLIIRRRKDMKKGQQVSFENEDIYNVRGK
B19: RsgI1N E9K-E21K (domain or fragment, C. thermocellum ATCC 27405)
chain: MNRLGIIYKIQGMKAVVLTSKGEFLIIRRRKDMKVGQQVSFENEDIYNVRGK
B20: RsgI1N V16I (domain or fragment, C. thermocellum ATCC 27405)
chain: MNRLGIIYEIQGMKAIVLTSEGEFLIIRRRKDMKVGQQVSFENEDIYNVRGK

The target in one data set is T1, SigI1C (Clostridium thermocellum ATCC 27405, UniProt A3DBH0 141-249).
T1 sequence: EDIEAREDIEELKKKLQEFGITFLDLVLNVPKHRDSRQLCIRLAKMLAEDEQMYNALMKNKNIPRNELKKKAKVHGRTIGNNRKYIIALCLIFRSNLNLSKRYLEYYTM
The data set can be described thus: EMSA. (Mobility shift assays separate free from complexed probe on a gel.)
B1: the binding result is listed as “binds”.

The target of another data set is T2, SigI1C K209E/R217E (Clostridium thermocellum ATCC 27405, UniProt A3DBH0 141-249, K209E;R217E).
T2 sequence: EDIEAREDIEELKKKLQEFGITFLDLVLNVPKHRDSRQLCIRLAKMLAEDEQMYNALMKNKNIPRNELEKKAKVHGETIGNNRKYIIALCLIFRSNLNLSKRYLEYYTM
The data set can be described thus: EMSA.
With B1, the binding result was “no binding”.

The next data set has as its target T3, SigI1C, C-terminal domain of σI factor SigI1 (C. thermocellum ATCC 27405, UniProt A3DBH0 141-249).
T3 sequence: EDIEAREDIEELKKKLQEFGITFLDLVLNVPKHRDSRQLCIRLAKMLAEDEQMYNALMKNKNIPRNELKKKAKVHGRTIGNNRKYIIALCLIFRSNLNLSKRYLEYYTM
The data set can be described thus: SPR.
Take B2: the Kd (usually a measure of binding affinity in units of concentration) was 0.011 nM.

Regarding B3, binding was put at a Kd of 0.16 nM. Molecule B4 had a Kd of 0.36 nM. Turning to B5, binding was characterised by a dissociation constant (Kd) of 0.0031 nM. The same measure, in the same setting: under B6 stands 0.016 nM; under B7, 0.097 nM. As for B8, the Kd came to 2.4 nM. On to B9, for which the Kd stood at 6.4 nM.

B10 yielded a Kd of 9.3 nM. Same read-out and setting: under B11 stands 0.19 nM. The same measure, in the same setting: under B12 stands 0.04 nM. As to B13, the Kd was 0.67 nM. As to B14, binding was put at a Kd of 0.023 nM. Same read-out and setting: then B15, with 0.084 nM.

For B16, the Kd came out at 0.071 nM. The same measure, in the same setting: under B17 stands 0.45 nM; under B18, 0.0065 nM.

Take B19: the affinity, expressed as Kd, was 0.02 nM. On the same count and under the same terms, then B20, with 0.36 nM.
